Data from the nanobody polyreactivity screen of Harvey et al. (2022).

Assay: yeast display, Sf9 membrane polyspecificity reagent, FACS + sequencing; frameworks hold sequencing errors
In short: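 Nanobodies came from a synthetic yeast display library in Saccharomyces cerevisiae BJ5465, induced with galactose for 36–48 hours and stained for 1 hour at 4 °C with 10% biotinylated, detergent-solubilized Sf9 membrane reagent. Cells were enriched on streptavidin microbeads and then FACS-sorted, with low and high (top ~1%) gates set on anti-HA fluorescence for expression and streptavidin fluorescence for reagent binding. Each polyreactivity label reflects the gate a clone came from. Genes were amplified by colony PCR, sequenced by MiSeq 2 × 250 and filtered by CDR length.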

Sequence	polyreactivity (PSR sort gate)
QVQLVESGGGLDQAGGSLRLSCAASGRIFSPNAMGWYRQAPGKERELVAAISRIGGRTYYADSVKGRFTISRDNAKNTVYLQMNSLKPEDTGVFYCNVVATHTDFTYDFWGQGTQVTVSS	high polyreactivity
QVQLVESGGGLDQAGGSLRLSCAASGRILRGYVMGWYRQAPGKERELVATITGRGGSTYYADSVKGRFTISRDNAKNSVYLQMNSLKPEDPAVYYCNKDGYPYFGRSESWGQGPQVTVSS	low polyreactivity
QVQLVESGGGLDQAGGSLRLSCAASGRTFADYAMGWYRQAPGNERELVADISKRGGSTYFADSVKGRFTISRDNAKNTFYLQMNSLKAEDTAVYYCAAGWYYYPTFYKVKSYNYWGQGTQVTVSS	high polyreactivity
QVQLVESGGGLDQAGGSLRLSCAASGRTFIRNVMGWYRQAPGKERELVAGITGGGNTYYADSVKGRFTISRDNAKNTVYLQMNSLKPEDTAVYYCAVRYPSYGLSYVRYGYWGQGTQVTVSS	high polyreactivity
QVQLVESGGGLDQAGGSLRLSCAASGRTFKWNAIGWYRQAHGKERELVASITSGGSTNYADSVKGRFTISRDNAKNTVYLQMNSLKPEDTAVYYCNAEYYLFKRPYSYYYWGQGTQVTVSS	low polyreactivity
QVQLVESGGGLDQAGGSLRLSCAASGRTFTEYAMGWYRQAPGKERELVARISIGDSTYYADSVKGRFTISRDNAKNTDYLQMNSLKPEDTAVYYCNAEYSRSYRYDEGYWGQGTQVTVSS	low polyreactivity
QVQLVESGGGLDQAGGSLRLSCAASGRTFVYYALGWYRQAPRQERELVAAITWSGGRTYYADSVKGRFTISRDNAKNTVYLQMNSLKPEDTAVYYCNRDQWAWESGYAYNYCGQGTQVTVSS	low polyreactivity
QVQLVESGGGLDQAGGSLRLSCAASGRTFYIYTMGWYRQAPGKERELVAAISSSGDSTYYADSVKGRFTISRDNGKNTVYLQMNSLKPEDTAVYYCAAYATYPDEYWGEGTQVTVSS	low polyreactivity
QVQLVESGGGLDQAGGSLRLSCAASGRTFYYNAMGWYRQAPGKERELVADINWSGVRTYYADSVKGRFTISRDNAKNTVYLQMNSLKPEDTAVYYCAARYRTLTKYYWGQGTQVTVSS	low polyreactivity
QVQLVESGGGLDQAGGSLRLSCAASGSIFDSNAMGWYRQAPGKERELVAAISLSGGSTYYADSVKGRFTISRDNAKNTVYLQMNSLKPEDTAVYYCAKDGWYEYYWGQGTQVTVSS	low polyreactivity
QVQLVESGGGLDQAGGSLRLSCAASGSIFGSYAMGWNTPAPGKERELVAAISVSGGSTYYADSVKGRFTISRYNAKNTVYLQMNSLKPEDTAVYYCAADWQELEYDYWGQGTQVTVSS	low polyreactivity
QVQLVESGGGLDQAGGSLRLSCAASGSIFGSYTMGWYRQAPGKERQLVAVINWSGDRTYYADSVKGRFTISRDNAKNTVYLQMNSLKPEDTAVYYCAARERAGYSRIRYNYWGQGTQGTVSS	high polyreactivity
QVQLVESGGGLDQAGGSLRLSCAASGSIFGYYAMGWYRQAPGKERELVAAISRSGGSTYYADSVKGRFTISRDNAKNTVYLQMNSLKPEDTAVYYCAARPPYRVGIVPLGRREYYWGQGTQVTVSS	high polyreactivity
QVQLVESGGGLDQAGGSLRLSCAASGSIFNYKAMGWYRQAPGKEREMVAGISYHGDSTYADSVKGPFTISRDNAKNTVYLQMKSLKPEDTAVYYCAALGPDDWLWAGDYWGQGTQVTVSS	low polyreactivity
QVQLVESGGGLDQAGGSLRLSCAASGSIFSDNVMGWYRQAPGKERELVAAIRDGDTTNYADSVKGRFTISRDNAKNTVYLQMNSLKPEDTAVYYCAAVQDSSPDYSYAYLDGDRDYWGQGTQVTVSS	low polyreactivity
QVQLVESGGGLDQAGGSLRLSCAASGSIFSGYAMGWYRQAPGKERELVAGISSRGGRTYYADSVKGRFTISRDNAKNTVYLQMNSLKPEDTAVYYCAARWSRSRTSDRYNYWGQGTQVTVSS	high polyreactivity
QVQLVESGGGLDQAGGSLRLSCAASGSIFTVNAMGWYRQAPGKERELVAAIDGSSGSTNYADSVKGRFTISRDNAKNTVYLQMNSLKPEDTAVYFCAADWSYEYGYWGQGTQVTVSS	low polyreactivity
QVQLVESGGGLDQAGGSLRLSCAASGSILVSNDMGWYRQAPGKERELVAAISWSGGSTYYADSVKGRFTISRDNAKNTVYLQMNSLKPEDTAVYYCAAGFGFLFARQELDFDYWGQGTQVTVSS	low polyreactivity
QVQLVESGGGLDQAGGSLRLSCAASGSLFARNTMGGYRQAPGKERELVATITARGGSTYADSVKGRFTISRDNAKNTVYLQMNSLKPEDTAVYYCNADYGLFSRATFYGYDYWGQGTQVTVSS	low polyreactivity
QVQLVESGGGLDQAGGSLRLSCAASGSTFKPNVMGWYRQAPGEERELVAAISSRGGRTYYADSVKGRFTISRDNEKNNVYLQMNRLKPEDTAVYYCAALYLATGVDKAFDSWGQGTQVTVSS	high polyreactivity
QVQLVESGGGLDQAGGSLRLSCAASGSTFKWNAMGWYRQAPGKERELVAAISKGSVNTYYADSVKGRFTISRDNAKNTVYLQMNSLKPEDTAVYYCAADRRYPALDYWGQGTQVTVSS	high polyreactivity
QVQLVESGGGLDQAGGSLRLSCAASGSTFQVNVMAWYRQAPGKEREFVAGISYSGGSTYYADSVKGRFTISRDNAKNTVYLQMNSLKPEDTAVYYCAAEEDYNIAGSWTYTYDYWGQGTQVTVSS	low polyreactivity
QVQLVESGGGLDQAGGSLRLSCAASGSTFSGYAMGWYRQAPGKERELVATITRRGGNTYYADSVKGRFTISRDNAKNTVYLQMNSLKPEDTAVYYCAKDGRVHSPYDYWGQGTQVTVSS	low polyreactivity
QVQLVESGGGLDQAGGSLRLSCAASGSTFSIYTMGWYRQAPGKEREFVAAITYIGGRTYYADSVKGRFTISRDNAKNTVYLQMNSLKPEDTAVYYCAADWAYYVASYLYYTFDYWGQGTQVTVSS	low polyreactivity
QVQLVESGGGLDQAGGSLRLSCAASGSTFWGYTMGWYRQAPGKERELVAAITSGGSTNYADSVKGRFTISRDNAKNTVYLQMYSLKPEDTAVYYCNAVYPGRRRYRKWYIYDYWGQGTQVTVSS	high polyreactivity
QVQLVESGGGLDQAGGSLRLSCAASGSTFYYNTMGWYRQAPGKERELVAAISWRGVSTYYADSVKGRFTISRDNAKNTVYLQMNSLKPEDTAVYYCNAVHHYPEHIGGGYWGQGTQVTVSS	low polyreactivity
QVQLVESGGGLDQAGGSLRLSCAASGSTFYYYAMGWYRQAPGKERELVASISDDGSTNYADSVKGRFTISRDNAKNTVYLQMNSLKPEDTAVYYCAAVWWHQFGSAWYQMGYWGQGTQVTVSS	low polyreactivity
QVQLVESGGGLDQAGGSLRLSCAASGSTLGRYTMGWYRQAPGKERELVAAITRGGRTNYADSVKGRFTISRDNAKNTVYLQMNSLKPEDTAVYYCAKLYRYGDYDYWGQGTQVTVSS	high polyreactivity
QVQLVESGGGLDQAGGSLRLSCAASGSTLGYNAMGWYRQAPGKERVLVAAISRSGGITYYADSVKGRFTISRDTAKNTVYLQMNSLKPEDTAVYYCNAVDRTRYRPGNDYDYWGQGTQVTVSS	high polyreactivity
QVQLVESGGGLDQAGGSLRLSCAASGSTLGYNVMGWYRQAPGKERELVAAISGDGSTNYADSVKGRFTISRDNAKNTVYLQMNSLKPEDTAVYYCAARPGWFAGYEYWGQGTQVTVSS	low polyreactivity
